# Results taken from the Immune Epitope Database (IEDB).
# Columns and labels:
# HLA-B*57:01 = assay: IEDB peptide-MHC binding, purified MHC/competitive/fluorescence; filed as Kd, often an IC50 or EC50 that approximates it; ≥ and ≤ were set here for values at or beyond the usual limits of such assays
# HLA-B*15:01 = assay: as above
# HLA-A*24:03 = assay: as above
# HLA-B*46:01 = assay: as above
# HLA-B*51:01 = assay: as above
# HLA-A*02:12 [1] = assay: as above
# HLA-A*69:01 = assay: as above
# HLA-B*27:03 = assay: as above
# HLA-A*03:01 [2] = assay: as above
# HLA-A*26:01 = assay: as above
# HLA-B*39:01 = assay: as above
# HLA-A*02:19 [3] = assay: as above
# HLA-A*02:01 = assay: as above
# HLA-A*29:02 = assay: as above; conditions: source organism: Vibrio parahaemolyticus AQ3810
# HLA-B*15:17 = assay: as above; conditions: source organism: Vibrio parahaemolyticus AQ3810
# HLA-B*18:01 = assay: as above
# HLA-B*07:02 = assay: as above; conditions: source organism: Influenza A virus (A/Denver/1957(H1N1))
# HLA-C*03:03 = assay: IEDB peptide-MHC binding, purified MHC/direct/fluorescence; filed as Kd, often an IC50 or EC50 that approximates it; ≥ and ≤ were set here for values at or beyond the usual limits of such assays
# HLA-A*02:03 [4] = assay: IEDB peptide-MHC binding, purified MHC/competitive/fluorescence; filed as Kd, often an IC50 or EC50 that approximates it; ≥ and ≤ were set here for values at or beyond the usual limits of such assays; conditions: source organism: Giardia lamblia ATCC 50803
# HLA-A*02:11 [5] = assay: as above; conditions: source organism: Entamoeba histolytica HM-1:IMSS
# HLA-A*02:16 = assay: IEDB peptide-MHC binding, purified MHC/direct/fluorescence; filed as Kd, often an IC50 or EC50 that approximates it; ≥ and ≤ were set here for values at or beyond the usual limits of such assays; conditions: source organism: Orthohantavirus andesense
# HLA-A*02:03 [6] = assay: as above; conditions: source organism: Orthohantavirus andesense
# HLA-A*02:11 [7] = assay: as above; conditions: source organism: Orthohantavirus andesense
# HLA-A*02:12 [8] = assay: as above; conditions: source organism: Orthohantavirus andesense
# HLA-A*03:01 [9] = assay: as above; conditions: source organism: Orthohantavirus andesense
# HLA-A*02:19 [10] = assay: as above; conditions: source organism: Orthohantavirus andesense
# HLA-A*68:02 = assay: as above; conditions: source organism: Orthohantavirus andesense
# [11] = source organism: Vibrio parahaemolyticus AQ3810
# [12] = source organism: Giardia lamblia ATCC 50803
# [13] = source organism: Entamoeba histolytica HM-1:IMSS
# [14] = source organism: Orthohantavirus andesense
sequence,measurement,setting,value
MLTNASGHA,Kd,HLA-B*57:01; [11],≥ 20 µM
same,Kd,HLA-B*15:01; [11],≥ 20 µM
same,Kd,HLA-A*24:03; [11],≥ 20 µM
same,Kd,HLA-B*46:01; [11],≥ 20 µM
same,Kd,HLA-B*51:01; [11],≥ 20 µM
same,Kd,HLA-A*02:12 [1]; [11],0.438 µM
same,Kd,HLA-A*69:01; [11],≥ 20 µM
same,Kd,HLA-B*27:03; [11],≥ 20 µM
same,Kd,HLA-A*03:01 [2]; [11],≥ 20 µM
same,Kd,HLA-A*26:01; [11],≥ 20 µM
same,Kd,HLA-B*39:01; [11],≥ 20 µM
same,Kd,HLA-A*02:19 [3]; [11],≥ 20 µM
same,Kd,HLA-A*02:01; [11],0.2 µM
same,Kd,HLA-A*29:02,≥ 20 µM
same,Kd,HLA-B*15:17,≥ 20 µM
same,Kd,HLA-B*18:01; [11],≥ 20 µM
RIRFVQNAL,Kd,HLA-B*07:02,0.0199 µM
RLREALCAV,Kd,HLA-C*03:03; source organism: Mycobacterium tuberculosis str. Haarlem,≥ 20 µM
RMAATAQVL,Kd,HLA-C*03:03; source organism: Mycobacterium tuberculosis C,0.012 µM
TELPLAYER,Kd,HLA-B*57:01; [12],≥ 20 µM
same,Kd,HLA-B*15:01; [12],≥ 20 µM
same,Kd,HLA-A*02:03 [4],≥ 20 µM
same,Kd,HLA-A*24:03; [12],≥ 20 µM
same,Kd,HLA-B*46:01; [12],≥ 20 µM
same,Kd,HLA-B*51:01; [12],≥ 20 µM
same,Kd,HLA-A*02:12 [1]; [12],≥ 20 µM
same,Kd,HLA-B*27:03; [12],≥ 20 µM
same,Kd,HLA-A*03:01 [2]; [12],≥ 20 µM
same,Kd,HLA-A*26:01; [12],≥ 20 µM
same,Kd,HLA-B*39:01; [12],≥ 20 µM
same,Kd,HLA-A*02:19 [3]; [12],≥ 20 µM
same,Kd,HLA-A*02:01; [12],≥ 20 µM
same,Kd,HLA-B*18:01; [12],0.395 µM
TLPGCLIIL,Kd,HLA-B*57:01; [13],≥ 20 µM
same,Kd,HLA-B*15:01; [13],≥ 20 µM
same,Kd,HLA-B*46:01; [13],≥ 20 µM
same,Kd,HLA-A*02:11 [5],4.65 µM
same,Kd,HLA-B*51:01; [13],≥ 20 µM
same,Kd,HLA-B*27:03; [13],≥ 20 µM
same,Kd,HLA-A*03:01 [2]; [13],≥ 20 µM
same,Kd,HLA-A*26:01; [13],≥ 20 µM
same,Kd,HLA-B*39:01; [13],≥ 20 µM
same,Kd,HLA-B*18:01; [13],≥ 20 µM
VFTSRIQVI,Kd,HLA-A*02:16,≥ 20 µM
same,Kd,HLA-A*02:03 [6],≥ 20 µM
same,Kd,HLA-A*02:11 [7],≥ 20 µM
same,Kd,HLA-A*02:12 [8],≥ 20 µM
same,Kd,HLA-A*03:01 [9],≥ 20 µM
same,Kd,HLA-A*02:19 [10],≥ 20 µM
same,Kd,HLA-A*68:02,≥ 20 µM
same,Kd,HLA-B*57:01; [14],≥ 20 µM
same,Kd,HLA-A*24:03; [14],0.0246 µM
same,Kd,HLA-B*46:01; [14],≥ 20 µM
same,Kd,HLA-B*51:01; [14],≥ 20 µM
same,Kd,HLA-A*69:01; [14],≥ 20 µM
same,Kd,HLA-B*27:03; [14],≥ 20 µM
same,Kd,HLA-A*26:01; [14],≥ 20 µM
same,Kd,HLA-B*39:01; [14],≥ 20 µM
same,Kd,HLA-A*02:01; [14],≥ 20 µM
same,Kd,HLA-B*18:01; [14],≥ 20 µM
